Starred links: 1 amine or outer side, 2 acyl side, 3 side chain; linkers in the order of their positions; H or OH if unused. Positions of bridges follow the written chain, without caps; N, C: chain ends. Non-standard residues stand in square brackets, D forms with d. Primed or numbered codes have the meaning given here. *: point of attachment. PyrS2″ = (S)-3-amino-1-((pent-4-en-1-yloxy)carbonyl)pyrrolidine-3-carboxylic acid (stapling residue), C=CCCCOC(=O)N1CC[C@@](N[*:1])(C(=O)[*:2])C1; B5(32) = 2-amino-2-(pent-4-en-1-yl)hept-6-enoic acid (bis-4-pentenylglycine, two alkene side chains), C=CCCCC(CCCC=C)(N[*:1])C(=O)[*:2]; B5(4) = 2,2-bis(4-pentenyl)glycine = 2-amino-2-(pent-4-en-1-yl)hept-6-enoic acid (stitching residue), C=CCCCC(CCCC=C)(N[*:1])C(=O)[*:2]; B5(5) = 2,2-bis(4-pentenyl)glycine, 2-amino-2-(pent-4-en-1-yl)hept-6-enoic acid (stitching residue), C=CCCCC(CCCC=C)(N[*:1])C(=O)[*:2]; TfeGA = (S)-2-amino-3-((carboxymethyl)(2,2,2-trifluoroethyl)amino)propanoic acid, O=C([C@H](CN(CC(=O)[*:3])CC(F)(F)F)N[*:1])[*:2]; PyrS2 = (S)-3-amino-1-((pent-4-en-1-yloxy)carbonyl)pyrrolidine-3-carboxylic acid, C=CCCCOC(=O)N1CC[C@@](N[*:1])(C(=O)[*:2])C1; B5(22) = 2-amino-2-(pent-4-en-1-yl)hept-6-enoic acid (two alkene side chains), C=CCCCC(CCCC=C)(N[*:1])C(=O)[*:2]; 3Br4FF = (S)-2-amino-3-(3-bromo-4-fluorophenyl)propanoic acid, O=C([C@H](Cc1ccc(F)c(Br)c1)N[*:1])[*:2]; B5(3) = 2,2-bis(4-pentenyl)glycine (stitching residue), C=CCCCC(CCCC=C)(N[*:1])C(=O)[*:2]; B5 = 2-amino-2-(pent-4-en-1-yl)hept-6-enoic acid, C=CCCCC(CCCC=C)(N[*:1])C(=O)[*:2]; Phe(3-COOH) = N[C@@H](Cc1cccc(C(=O)O)c1)C(=O)O; Phe(2-CF3) = N[C@@H](Cc1ccccc1C(F)(F)F)C(=O)O; Phe(3,4-Me2) = Cc1ccc(C[C@H](N)C(=O)O)cc1C; Phe(3-Br) = N[C@@H](Cc1cccc(Br)c1)C(=O)O; Phe(2-Cl) = N[C@@H](Cc1ccccc1Cl)C(=O)O; Bta = N[C@@H](Cc1csc2ccccc12)C(=O)O; αAllylPro = C=CC[C@@]1(C(=O)O)CCCN1; tBuAla = CC(C)(C)C[C@H](N)C(=O)O; 3Thi = N[C@@H](Cc1ccsc1)C(=O)O; BrAc = O=C(CBr)*
The binders below were run against full-length beta-Catenin (Uniprot ID P35222) (Homo sapiens (Human)) (UniProt P35222) (assay: fluorescence polarization competition; 10 nM full-length beta-catenin + 10 nM 5FAM-TCF4(10-53) probe).
Target sequence in this assay (P35222 whole entry): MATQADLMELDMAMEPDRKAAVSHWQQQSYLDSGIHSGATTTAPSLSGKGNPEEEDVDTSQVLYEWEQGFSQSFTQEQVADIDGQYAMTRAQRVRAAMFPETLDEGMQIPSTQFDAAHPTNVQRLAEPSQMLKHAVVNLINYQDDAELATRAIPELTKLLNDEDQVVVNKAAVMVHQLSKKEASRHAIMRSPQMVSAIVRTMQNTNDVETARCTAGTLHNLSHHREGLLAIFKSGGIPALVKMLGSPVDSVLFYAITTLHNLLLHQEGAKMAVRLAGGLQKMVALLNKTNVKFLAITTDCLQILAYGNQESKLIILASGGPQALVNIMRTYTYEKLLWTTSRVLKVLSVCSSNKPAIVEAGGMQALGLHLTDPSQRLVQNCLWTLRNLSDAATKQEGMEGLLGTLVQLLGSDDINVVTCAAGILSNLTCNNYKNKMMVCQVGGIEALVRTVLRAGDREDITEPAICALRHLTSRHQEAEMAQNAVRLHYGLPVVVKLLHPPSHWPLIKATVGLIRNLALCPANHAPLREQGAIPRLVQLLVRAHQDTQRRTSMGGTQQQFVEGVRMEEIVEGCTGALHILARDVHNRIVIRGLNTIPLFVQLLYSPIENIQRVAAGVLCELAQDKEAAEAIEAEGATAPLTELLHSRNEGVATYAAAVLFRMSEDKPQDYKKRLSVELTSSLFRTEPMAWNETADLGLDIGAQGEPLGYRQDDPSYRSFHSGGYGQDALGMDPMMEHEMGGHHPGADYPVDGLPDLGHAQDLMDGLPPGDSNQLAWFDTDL

Binder	EC50 [nM]
Ac-[αAllylPro]D[tBuAla][B5(22)]D[TfeGA]AAFN[PyrS2][3Thi][Bta]S-NH2 (staple 1-4, 4-11; also: staple isomer, earlier eluting HPLC peak) [I-940]	1740
Ac-[αAllylPro]D[tBuAla][B5(22)]D[TfeGA]AAFN[PyrS2][3Thi][Bta]S-NH2 (staple 1-4, 4-11; also: staple isomer composition, later-eluting HPLC peak) [I-941]	2110
Ac-[αAllylPro]D[tBuAla][B5(5)]D[TfeGA]AAFN[PyrS2″][3Thi][Bta]T-NH2 (staple 1-4, 4-11; also: staple isomer composition, earlier-eluting HPLC peak) [I-942]	1280

What follows are binders tested against full-length beta-Catenin (Uniprot ID P35222) (Homo sapiens (Human)) (UniProt P35222) (assay: fluorescence polarization competition; full-length beta-catenin, 5FAM-TCF4(10-53) probe).
Target sequence in this assay (P35222 2-781 limits assumed): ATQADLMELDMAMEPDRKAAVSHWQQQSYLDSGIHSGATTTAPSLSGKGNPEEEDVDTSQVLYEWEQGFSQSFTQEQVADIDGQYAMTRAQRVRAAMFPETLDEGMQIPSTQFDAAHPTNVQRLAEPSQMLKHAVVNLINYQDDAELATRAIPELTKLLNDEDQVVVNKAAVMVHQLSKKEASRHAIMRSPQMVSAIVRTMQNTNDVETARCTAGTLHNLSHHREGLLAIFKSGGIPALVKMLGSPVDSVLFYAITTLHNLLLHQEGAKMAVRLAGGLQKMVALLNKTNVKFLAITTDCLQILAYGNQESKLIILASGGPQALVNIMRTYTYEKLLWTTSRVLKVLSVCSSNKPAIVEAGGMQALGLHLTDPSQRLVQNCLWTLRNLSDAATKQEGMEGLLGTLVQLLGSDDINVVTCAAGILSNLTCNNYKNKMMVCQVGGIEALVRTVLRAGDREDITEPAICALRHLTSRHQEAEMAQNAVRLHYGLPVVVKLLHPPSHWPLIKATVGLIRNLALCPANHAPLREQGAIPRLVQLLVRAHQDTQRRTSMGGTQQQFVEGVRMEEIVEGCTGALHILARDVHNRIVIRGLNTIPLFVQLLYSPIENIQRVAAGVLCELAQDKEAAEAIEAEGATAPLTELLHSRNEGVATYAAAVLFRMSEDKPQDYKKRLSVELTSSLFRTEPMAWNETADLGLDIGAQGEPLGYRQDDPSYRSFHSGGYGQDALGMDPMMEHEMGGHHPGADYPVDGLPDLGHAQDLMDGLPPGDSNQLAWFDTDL

Binder	IC50 [nM]
Ac-[αAllylPro]D[tBuAla][B5(22)]D[TfeGA]AAFN[PyrS2][3Thi][Bta]S-NH2 (staple 1-4, 4-11; also: staple isomer, earlier eluting HPLC peak) [I-940]	1740
Ac-[αAllylPro]D[tBuAla][B5(22)]D[TfeGA]AAFN[PyrS2][3Thi][Bta]S-NH2 (staple 1-4, 4-11; also: staple isomer composition, later-eluting HPLC peak) [I-941]	2110
Ac-[αAllylPro]D[tBuAla][B5(5)]D[TfeGA]AAFN[PyrS2″][3Thi][Bta]T-NH2 (staple 1-4, 4-11; also: staple isomer composition, earlier-eluting HPLC peak) [I-942]	1280
Ac-[αAllylPro]D[tBuAla][B5(3)]NTAAFN[PyrS2″][3Thi][Bta]W-NH2 (staple 1-4, 4-11; also: earlier eluting HPLC isomer) [I-2138]	1010
Ac-[αAllylPro]D[tBuAla][B5]NTAAFN[PyrS2][3Thi][Bta]W-NH2 (staple 1-4, 4-11; also: later eluting HPLC isomer) [I-2139]	970
Ac-[αAllylPro]D[tBuAla][B5]NTAAFN[PyrS2][3Thi][Bta]H-NH2 (staple 1-4, 4-11; also: earlier eluting HPLC isomer) [I-2140]	233
Ac-[αAllylPro]D[tBuAla][B5]NTAAFN[PyrS2][3Thi][Bta]H-NH2 (staple 1-4, 4-11; also: later eluting HPLC isomer) [I-2141]	310
Ac-[αAllylPro]D[tBuAla][B5]NTAAFN[PyrS2][3Thi][Bta]A-NH2 (staple 1-4, 4-11; also: later eluting HPLC isomer) [I-2143]	217
Ac-[αAllylPro]D[tBuAla][B5]NTAAFT[PyrS2][3Thi][Bta]F-NH2 (staple 1-4, 4-11; also: earlier eluting HPLC isomer) [I-2144]	2020
Ac-[αAllylPro]D[tBuAla][B5]NTAAFT[PyrS2][3Thi][Bta]F-NH2 (staple 1-4, 4-11; also: later eluting HPLC isomer) [I-2145]	2070
Ac-[αAllylPro]D[tBuAla][B5]NTAAFH[PyrS2][3Thi][Bta]Q-NH2 (staple 1-4, 4-11; also: earlier eluting HPLC isomer) [I-2146]	248
Ac-[αAllylPro]D[tBuAla][B5]NTAAFH[PyrS2][3Thi][Bta]Q-NH2 (staple 1-4, 4-11; also: later eluting HPLC isomer) [I-2147]	390
Ac-[αAllylPro]D[tBuAla][B5]TTAAFN[PyrS2][3Thi][Bta]Q-NH2 (staple 1-4, 4-11; also: earlier eluting HPLC isomer) [I-2148]	10000
Ac-[αAllylPro]D[tBuAla][B5]TTAAFN[PyrS2][3Thi][Bta]Q-NH2 (staple 1-4, 4-11; also: later eluting HPLC isomer) [I-2149]	7180
Ac-[αAllylPro]D[tBuAla][B5]D[Phe(3-COOH)]AAFL[PyrS2][Phe(3-Br)]FQ-NH2 (staple 1-4, 4-11) [I-2153]	1480
Ac-[αAllylPro]D[tBuAla][B5]D[Phe(3-COOH)]AAFL[PyrS2][Phe(3-Br)][Phe(2-CF3)]Q-NH2 (staple 1-4, 4-11) [I-2155]	10000

Each binder was assayed against full-length beta-Catenin (Uniprot ID P35222) (Homo sapiens (Human)) (UniProt P35222) (assay: fluorescence polarization competition; full-length beta-catenin, competitor probe 5FAM-TCF4(10-53)).
Target sequence in this assay (P35222 whole entry): as the sequence (P35222 whole entry) above

Binder	IC50 [nM]
Ac-[αAllylPro]D[tBuAla][B5(4)]D[Phe(3-COOH)]AAFL[PyrS2][3Thi][Bta]NALALA-NH2 (staple 1-4, 4-11; also: later eluting staple isomer) [I-2282]	156
Ac-[αAllylPro]D[tBuAla][B5(4)]D[Phe(3-COOH)]AAFL[PyrS2][3Thi][Bta]NALALALA-NH2 (staple 1-4, 4-11; also: earlier eluting staple isomer) [I-2283]	2860
Ac-[αAllylPro]D[tBuAla][B5(4)]D[Phe(3-COOH)]AAFL[PyrS2][3Thi][Bta]NALALALA-NH2 (staple 1-4, 4-11; also: later eluting staple isomer) [I-2284]	2680
BrAc-[αAllylPro]D[tBuAla][B5(32)]DDAAFQ[PyrS2][3Thi][Bta]H-NH2 (staple 1-4, 4-11) [I-2285]	94
BrAc-[αAllylPro]D[tBuAla][B5(4)]D[Phe(3-COOH)]AAFL[PyrS2][Phe(2-Cl)][Bta]A-NH2 (staple 1-4, 4-11) [I-2286]	88
Ac-[αAllylPro]D[tBuAla][B5(4)]D[Phe(3-COOH)]AAFL[PyrS2][3Thi][3Br4FF]Q-NH2 (staple 1-4, 4-11) [I-2287]	7
Ac-[αAllylPro]D[tBuAla][B5(4)]D[Phe(3-COOH)]AAFL[PyrS2][Phe(2-CF3)][3Br4FF]S-NH2 (staple 1-4, 4-11) [I-2289]	8
Ac-[αAllylPro]D[tBuAla][B5(4)]D[Phe(3-COOH)]QAFL[PyrS2][Phe(2-CF3)][3Br4FF]A-NH2 (staple 1-4, 4-11) [I-2290]	14
Ac-[αAllylPro]D[tBuAla][B5(4)]D[Phe(3-COOH)]AAFL[PyrS2][3Thi][Phe(3,4-Me2)]Q-NH2 (staple 1-4, 4-11) [I-2291]	5
Ac-[αAllylPro]D[tBuAla][B5(4)]D[Phe(3-COOH)]AAFL[PyrS2][Phe(2-CF3)][Phe(3,4-Me2)]S-NH2 (staple 1-4, 4-11) [I-2293]	15

Reference: patent US20240116985A1, “STAPLED PEPTIDES AND METHODS THEREOF” (priority 2020, published 2024)
